Source: patent US20200223910A1 (STERLING IP, published 2020)

T1: mouse TNC rCd4-His-FBG (rat; mouse, UniProt P05540 209-391; Q80YX1 1883-2110, limits assumed)
T1 construct: domain: domains 3 and 4;domain: FBG; Biotinylated in the capture ELISA; also called Mu TNC; mTNC; not shown: 6His tag
T1 sequence (chain (part 1 of 2), looked up): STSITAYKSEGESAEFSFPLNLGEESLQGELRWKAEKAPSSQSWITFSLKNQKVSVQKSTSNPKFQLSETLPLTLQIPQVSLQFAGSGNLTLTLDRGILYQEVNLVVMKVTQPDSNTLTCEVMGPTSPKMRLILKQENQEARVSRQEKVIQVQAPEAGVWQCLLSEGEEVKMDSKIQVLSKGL
T1 sequence (chain (part 2 of 2), looked up): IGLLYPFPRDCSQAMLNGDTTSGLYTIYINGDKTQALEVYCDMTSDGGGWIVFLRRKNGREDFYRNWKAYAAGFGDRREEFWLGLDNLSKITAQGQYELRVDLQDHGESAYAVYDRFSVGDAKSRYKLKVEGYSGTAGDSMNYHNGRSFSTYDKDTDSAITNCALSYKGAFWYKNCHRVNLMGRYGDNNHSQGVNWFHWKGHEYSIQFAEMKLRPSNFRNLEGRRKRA

T2: human TNC rCd4-His-FBG (rat; human, UniProt P05540 209-391; P24821 1974-2201, limits assumed)
T2 construct: domain: domains 3 and 4;domain: FBG; C-terminal FBG fusion made in HEK293F cells; biotinylated in the ELISA and HTRF assays; also called Hu TNC; hTNC; not shown: 6His tag
T2 sequence (chain (part 1 of 2), looked up): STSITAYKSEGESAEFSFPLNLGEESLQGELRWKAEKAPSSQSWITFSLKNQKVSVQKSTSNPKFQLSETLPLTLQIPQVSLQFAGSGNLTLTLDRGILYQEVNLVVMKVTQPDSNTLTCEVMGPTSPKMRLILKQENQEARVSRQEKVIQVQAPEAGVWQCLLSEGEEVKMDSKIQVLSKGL
T2 sequence (chain (part 2 of 2), looked up): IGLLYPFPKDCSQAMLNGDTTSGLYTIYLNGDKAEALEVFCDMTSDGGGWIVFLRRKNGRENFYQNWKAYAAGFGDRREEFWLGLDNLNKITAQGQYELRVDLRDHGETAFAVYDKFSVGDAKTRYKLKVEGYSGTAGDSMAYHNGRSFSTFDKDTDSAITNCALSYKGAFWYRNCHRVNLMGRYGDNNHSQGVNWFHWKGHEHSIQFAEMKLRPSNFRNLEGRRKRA


Assays:
mouse TNC rCd4-His-FBG = biological target: T1, mouse TNC rCd4-His-FBG; assay: anti-FLAG capture DELFIA ELISA, scFv supernatant, biotinylated mouse rCd4-His-FBG
Protocol: E. coli clones harbouring scFv pSANG10 expression plasmids were induced in 96-well plates with auto-induction media as described previously (Schofield et al, 2007). E. coli supernatants were harvested for ELISA assays. ELISA used the DELFIA (dissociation enhanced lanthanide fluorescent immunoassay) system with Europium-labelled anti-FLAG antibody (Sigma, Aldrich, UK). Black immunosorb plates (Nunc) were coated overnight with anti-FLAG M2 antibody (Sigma, F3165, 5 μg/ml in PBS, 50 μl per well), in wells blocked by the addition of 2% milk powder, PBS (PBS-M, 300 μl per well). Plates were washed three times with PBS-T (PBS, 0.1% Tween-20) and three times with PBS followed by the addition of a 1:2 dilution of 96-well auto-induction culture supernatants containing expressed scFv in PBS-M (50 μl per well). The plates were incubated for 1 h, washed as above and biotinylated mouse or human rCd4-His-FBG ([…] in PBS-M, 50 μl) added to each well. Plates were incubated for a further 1 h, washed and Strepravidin-Eu added (Perkin Elmer, 1 μg/ml, PBS-M, 50 μl), incubated for 30 min, washed and DELFIA enhancement solution added (50 μl) and plates read on a Perkin Elmer Fusion plate reader (excitation=320 nm, emission 620 nm).

human TNC rCd4-His-FBG = biological target: T2, human TNC rCd4-His-FBG; assay: HTRF competition, scFv supernatant; competitor d2-labelled B12 IgG
Protocol: IgG antibodies were labelled using the d2 labelling kit (CisBio, 62D2DPEA) as directed by the manufacturer. Streptavidin europium cryptate (CisBio, 610SAKLA, Lot#25C) was used at a final concentration of 1.8 ng active moiety (SA) per 20 μl reaction as recommended by the manufacturer. Biotinylated rCd4-His-FBG was prepared using EZ-link Sulfo-NHS-LC-Biotin reagent (Thermo Scientific, 21327) the extent of biotinylation was quantified using biotinylation fluorescence quantitation kit (Thermo Scientific, 46610). Where appropriate, supernatants containing scFv (prepared as described above for ELISA assays) were added to the 384-well assay plate at a final dilution of 1/20 (i.e. ⅕ dilution in assay buffer followed by addition of 5 μl diluted sample to the 20 μl FRET assay). The concentrations of d2-labelled B12 IgG used for screening were 1.25 nM. Unless otherwise stated, biotinylated rCd4-His-FBG (biotin:protein ratio=1.8:1) was present at either 2.2 nM (in assays using the 2A5 IgG antibody) or 1 nM (in experiments using B12 IgG). Samples were incubated for approximately 1 h at room temperature and the FRET signal was determined using a BMG Pherastar instrument: excitation=320 nm; emission=620 nm and 665 nm; integration start time=60 μs; integration time=500 μs; 100 flashes per well. For competition assays containing culture supernatant, biotinylated rCd4-His-FBG antigen was pre-incubated with streptavidin europium cryptate for 45 min prior to addition of reagents to the assay plate. All FRET signals are presented as ΔR, where R =(E665/E620×104) and ΔR =(Rsample-Rbackground fluorescence).
Culture supernatants containing unlabelled scFv clones from affinity selected mutant libraries were tested for inhibition of the interaction between FBG and the fluorophore-labelled parental IgG antibody. […] The parental clones, expressed as scFvs in parallel with the affinity matured clones, were used as benchmarks.

| Binder | fold improvement for mouse FBG binding against parent B12 (mouse TNC rCd4-His-FBG) [fold] | % inhibition of HTRF signal (human TNC rCd4-His-FBG) [%] |
| --- | --- | --- |
| 165_13_D1 scFv (scFv, V domains shown, scFv in E. coli supernatant) VH: QVQLVESGGGLVQPGRSLRLSCAASGFTFDDYAMHWVRQAPGKGLEWVSGISGSGGSTYYADSVKGRFTISRDNAKNSLYLQMNSLRAEDTALYYCAKGTRGEGDTFDIWGQGTMVTVSS VL: DIQMTQSPASLPTPVGDRVTITCRASQYIQGFLNWYQQKPGKAPKLLIYDASNLETGVPSRFSGSGSGTDFTLTISSLQPEDFATYYCQQSYSTPQTFGQGTKVDIKR | ≥ 4 |  |
| 165_13_C3 scFv (scFv, V domains shown, scFv in E. coli supernatant) VH: QVQLVESGGGLVQPGRSLRLSCAASGFTFDDYAMHWVRQAPGKGLEWVSGISGSGGSTYYADSVKGRFTISRDNAKNSLYLQMNSLRAEDTALYYCAKSYQSDEDAFDIWGQGTMVTVSS VL: DIQMTQSPASLPTPVGDRVTITCRASQYIQGFLNWYQQKPGKAPKLLIYDASNLETGVPSRFSGSGSGTDFTLTISSLQPEDFATYYCQQSYSTPQTFGQGTKVDIKR | ≥ 4 | ≥ 91 |
| 165_13_B3 scFv (scFv, V domains shown, scFv in E. coli supernatant) VH: QVQLVESGGGLVQPGRSLRLSCAASGFTFDDYAMHWVRQAPGKGLEWVSGISGSGGSTYYADSVKGRFTISRDNAKNSLYLQMNSLRAEDTALYYCAKALARGHDTFDIWGQGTMVTVSS VL: DIQMTQSPASLPTPVGDRVTITCRASQYIQGFLNWYQQKPGKAPKLLIYDASNLETGVPSRFSGSGSGTDFTLTISSLQPEDFATYYCQQSYSTPQTFGQGTKVDIKR | ≥ 4 | ≥ 91 |
| 165_13_A4 scFv (scFv, V domains shown, scFv in E. coli supernatant) VH: QVQLVESGGGLVQPGRSLRLSCAASGFTFDDYAMHWVRQAPGKGLEWVSGISGSGGSTYYADSVKGRFTISRDNAKNSLYLQMNSLRAEDTALYYCAKDKYPVLDTFDIWGQGTMVTVSS VL: DIQMTQSPASLPTPVGDRVTITCRASQYIQGFLNWYQQKPGKAPKLLIYDASNLETGVPSRFSGSGSGTDFTLTISSLQPEDFATYYCQQSYSTPQTFGQGTKVDIKR | ≥ 4 | ≥ 91 |
| 165_13_E1 scFv (scFv, V domains shown, scFv in E. coli supernatant) VH: QVQLVESGGGLVQPGRSLRLSCAASGFTFDDYAMHWVRQAPGKGLEWVSGISGSGGSTYYADSVKGRFTISRDNAKNSLYLQMNSLRAEDTALYYCAKDISAVMDVPQTWGQGTMVTVSS VL: DIQMTQSPASLPTPVGDRVTITCRASQYIQGFLNWYQQKPGKAPKLLIYDASNLETGVPSRFSGSGSGTDFTLTISSLQPEDFATYYCQQSYSTPQTFGQGTKVDIKR | ≥ 4 | ≥ 91 |
| 180_11_F5 scFv (scFv, V domains shown, scFv in E. coli supernatant) VH: QVQLVESGGGLVQPGRSLRLSCAASGFTFDDYAMHWVRQAPGKGLEWVSGISGSGGSTYYADSVKGRFTISRDNAKNSLYLQMNSLRAEDTALYYCAKVMRTGLDTFDIWGQGTMVTVSS VL: DIQMTQSPASLPTPVGDRVTITCRASQYIQGFLNWYQQKPGKAPKLLIYDASNLETGVPSRFSGSGSGTDFTLTISSLQPEDFATYYCQQSYSTPQTFGQGTKVDIKR | ≥ 4 | ≥ 91 |

The remaining lines, values ahead:

| fold improvement for mouse FBG binding against parent B12 (mouse TNC rCd4-His-FBG) [fold] | % inhibition of HTRF signal (human TNC rCd4-His-FBG) [%] | Binder |
| --- | --- | --- |
| ≥ 4 |  | 165_13_B6 scFv (scFv, V domains shown, scFv in E. coli supernatant) VH: QVQLVESGGGLVQPGRSLRLSCAASGFTFDDYAMHWVRQAPGKGLEWVSGISGSGGSTYYADSVKGRFTISRDNAKNSLYLQMNSLRAEDTALYYCAKGQKGEGDTFDIWGQGTMVTVSS VL: DIQMTQSPASLPTPVGDRVTITCRASQYIQGFLNWYQQKPGKAPKLLIYDASNLETGVPSRFSGSGSGTDFTLTISSLQPEDFATYYCQQSYSTPQTFGQGTKVDIKR |
| ≥ 4 | ≥ 91 | 165_13_D4 scFv (scFv, V domains shown, scFv in E. coli supernatant) VH: QVQLVESGGGLVQPGRSLRLSCAASGFTFDDYAMHWVRQAPGKGLEWVSGISGSGGSTYYADSVKGRFTISRDNAKNSLYLQMNSLRAEDTALYYCAKGTVGEGDTFDIWGQGTMVTVSS VL: DIQMTQSPASLPTPVGDRVTITCRASQYIQGFLNWYQQKPGKAPKLLIYDASNLETGVPSRFSGSGSGTDFTLTISSLQPEDFATYYCQQSYSTPQTFGQGTKVDIKR |
| ≥ 4 |  | 165_13_B1 scFv (scFv, V domains shown, scFv in E. coli supernatant (pSANG10, FLAG-tagged)) VH: QVQLVESGGGLVQPGRSLRLSCAASGFTFDDYAMHWVRQAPGKGLEWVSGISGSGGSTYYADSVKGRFTISRDNAKNSLYLQMNSLRAEDTALYYCAKVMSSMEDAFDIWGQGTMVTVSS VL: DIQMTQSPASLPTPVGDRVTITCRASQYIQGFLNWYQQKPGKAPKLLIYDASNLETGVPSRFSGSGSGTDFTLTISSLQPEDFATYYCQQSYSTPQTFGQGTKVDIKR |
